Laboratory results published in article PMC7367873, “Dissecting the sequence determinants for dephosphorylation by the catalytic subunits of phosphatases PP1 and PP2A” (Nature Communications, 2020).

B1: EDC3 (protein, UniProt Q96F86 1-508, looked up)
Enhancer of mRNA-decapping …: MATDWLGSIVSINCGDSLGVYQGRVSAVDQVSQTISLTRPFHNGVKCLVPEVTFRAGDITELKILEIPGPGDNQHFGDLHQTELGPSGAGCQVGINQNGTGKFVKKPASSSSAPQNIPKRTDVKSQDVAVSPQQQQCSKSYVDRHMESLSQSKSFRRRHNSWSSSSRHPNQATPKKSGLKNGQMKNKDDECFGDDIEEIPDTDFDFEGNLALFDKAAVFEEIDTYERRSGTRSRGIPNERPTRYRHDENILESEPIVYRRIIVPHNVSKEFCTDSGLVVPSISYELHKKLLSVAEKHGLTLERRLEMTGVCASQMALTLLGGPNRLNPKNVHQRPTVALLCGPHVKGAQGISCGRHLANHDVQVILFLPNFVKMLESITNELSLFSKTQGQQVSSLKDLPTSPVDLVINCLDCPENVFLRDQPWYKAAVAWANQNRAPVLSIDPPVHEVEQGIDAKWSLALGLPLPLGEHAGRIYLCDIGIPQQVFQEVGINYHSPFGCKFVIPLHSA
B2: GLCCI1 (protein, UniProt Q86VQ1 1-547, looked up)
Glucocorticoid-induced …: MSTASSSSSSSSSQTPHPPSQRMRRSAAGSPPAVAAAGSGNGAGGGGGVGCAPAAGAGRLLQPIRATVPYQLLRGSQHSPTRPPVAAAAASLGSLPGPGAARGPSPSSPTPPAAAAPAEQAPRAKGRPRRSPESHRRSSSPERRSPGSPVCRADKAKSQQVRTSSTIRRTSSLDTITGPYLTGQWPRDPHVHYPSCMKDKATQTPSCWAEEGAEKRSHQRSASWGSADQLKEQIAKLRQQLQRSKQSSRHSKEKDRQSPLHGNHITISHTQATGSRSVPMPLSNISVPKSSVSRVPCNVEGISPELEKVFIKENNGKEEVSKPLDIPDGRRAPLPAHYRSSSTRSIDTQTPSVQERSSSCSSHSPCVSPFCPPESQDGSPCSTEDLLYDRDKDSGSSSPLPKYASSPKPNNSYMFKREPPEGCERVKVFEEMASRQPISAPLFSCPDKNKVNFIPTGSAFCPVKLLGPLLPASDLMLKNSPNSGQSSALATLTVEQLSSRVSFTSLSDDTSTAGSMEASVQQPSQQQQLLQELQGEDHISAQNYVII
B3: RAE1 (protein, UniProt P78406 1-368, looked up)
mRNA export factor RAE1: MSLFGTTSGFGTSGTSMFGSATTDNHNPMKDIEVTSSPDDSIGCLSFSPPTLPGNFLIAGSWANDVRCWEVQDSGQTIPKAQQMHTGPVLDVCWSDDGSKVFTASCDKTAKMWDLSSNQAIQIAQHDAPVKTIHWIKAPNYSCVMTGSWDKTLKFWDTRSSNPMMVLQLPERCYCADVIYPMAVVATAERGLIVYQLENQPSEFRRIESPLKHQHRCVAIFKDKQNKPTGFALGSIEGRVAIHYINPPNPAKDNFTFKCHRSNGTNTSAPQDIYAVNGIAFHPVHGTLATVGSDGRFSFWDKDARTKLKTSEQLDQPISACCFNHNGNIFAYASSYDWSKGHEFYNPQKKNYIFLRNAAEELKPRNKK
B4: EIF4E2 (protein, UniProt O60573 1-245, looked up)
Eukaryotic translation …: MNNKFDALKDDDSGDHDQNEENSTQKDGEKEKTERDKNQSSSKRKAVVPGPAEHPLQYNYTFWYSRRTPGRPTSSQSYEQNIKQIGTFASVEQFWRFYSHMVRPGDLTGHSDFHLFKEGIKPMWEDDANKNGGKWIIRLRKGLASRCWENLILAMLGEQFMVGEEICGAVVSVRFQEDIISIWNKTASDQATTARIRDTLRRVLNLPPNTIMEYKTHTDSIKMPGRLGPQRLLFQNLWKPRLNVP

Assays:
[1] = tested on: GFP-14-3-3β and its binding proteins; assay: GFP-14-3-3β co-IP with LC-MS/MS label-free quantification, untreated versus PP1c-treated; parameters: species or system human; details: pairwise comparison PP1 vs untreated, student's t-test; 3 replicates each; LC-MS/MS label-free quantification
GFP-14-3-3β = GFP-14-3-3β co-IP with LC-MS/MS, untreated GFP-14-3-3β versus GFP control (14-3-3 interactome); assay type: binding, human; details: pairwise comparison untreated GFP-14-3-3β vs GFP, student's t-test; 3 replicates each; LC-MS/MS label-free quantification

Row | Molecule | Difference (log2), PP1 vs untreated [1] [log2] | Difference (log2), untreated vs GFP (GFP-14-3-3β) [log2]
1 | B1 | -4.243 | 4.9273
2 | B2 | -4.246 | 4.69
3 | B3 | -4.214 | 3.4084
4 | B4 | -4.306 | 3.4457
